The test concerns the target SECRET domain (smallpox virus-encoded chemokine receptor domain) of the vTNFR CrmD encoded by ectrom (ectromelia virus). In words: SPR. In general terms: In SPR one partner is held on a chip, and binding of the other changes the refractive index at the surface.

“And” between values parts separate entries of the source, which are not always exact repeats. Equal entries are not always repeated.

A word on the Kd: it is a measure of binding affinity in units of concentration. A lower Kd goes with tighter binding. Broadly, the koff is the rate constant with which the complex falls apart. A lower koff goes with a long-lived complex. In general, kon refers to a measure of how fast the partners come together.

“chemokine domain of human CX3CL1 (residues 1-76), mutant R44A (from UniProt P78423 25-100) (domain or fragment)”: the Kd is 15.7 µM and 16.6 µM and 16.1 µM. Take “chemokine domain of human CX3CL1 (residues 1-76), mutant L23A (from UniProt P78423 25-100) (domain or fragment)”: the Kd is 3.36 µM and 5.62 µM and 4.49 µM. As to “chemokine domain of human CX3CL1 (residues 1-76), mutant K18A (from UniProt P78423 25-100) (domain or fragment)”, the Kd is 10.9 µM and 11.5 µM and 10.3 µM; the koff is 0.0103 s⁻¹ and 0.00518 s⁻¹; the kon was 1000 M⁻¹ s⁻¹ and 450 M⁻¹ s⁻¹. With “chemokine domain of human CX3CL1 (residues 1-76), mutant I19A (from UniProt P78423 25-100) (domain or fragment)”, the Kd is 1.28 µM and 0.641 µM and 0.96 µM; the koff was 0.00689 s⁻¹ and 0.00578 s⁻¹; the kon is 5380 M⁻¹ s⁻¹ and 9020 M⁻¹ s⁻¹. Take “chemokine domain of human CX3CL1 (residues 1-76), mutant R47A (from UniProt P78423 25-100) (domain or fragment)”: the Kd is 34.5 µM and 38.4 µM and 36.5 µM. With “chemokine domain of human CX3CL1 (residues 1-76), mutant F49A (from UniProt P78423 25-100) (domain or fragment)”, the Kd is 3.75 µM and 4.64 µM and 4.2 µM.

These data come from article PMC3145792.
